Assay results reported in patent US20240285753A1.

B1: Cov89-22 (antibody)
chain 1: QEQLVQSGAEVKKPGASVKVSCKSSGFTFSYFYLHWVRQAPGQGLEWMGIINPRGDGTRYAQKFQGRVTMTRDASTGTLYMELRSLRSEDTAVYYCARGADHGAFDIWGQGTMVTVSS
chain 2: EIVLTQSPGTLSLSPGERATLSCRASQSVRRNYFAWYQQKRGQAPRLLIYDASTRATGIPDRFSGSGSGTDFTLTISRLEPEDFAVYYCQQYDSSPPMYIFGQGTKLEIK
B2: Cov30-14 (antibody)
chain 1: QVQLVQSGAEVKKPGASVKVSCQTSGYTFTSYYMHWVRQAPGQGLEWMGLITPSGDDTYYAQRFQGRVTMTRDTSTSPTYMELSSLTSEDTAVYYCAKMSRAGGFDVWGQGTLVTVSS
chain 2: EVVLTQSPGTLSLSPGERATLSCRASQSITGRYLAWYQQKPGQAPRLLMYGESSRVTGIPDRFSGGGSGTDFTLTISRLEPEDFAVYYCQHFASSPPTYTFGQGTKLEIR
B3: COV44-79 (antibody)
chain 1: QVQLVESGGGVVQPGRSLRLSCAASGLTFSGYAMHWVRQAPGKGLEWVAVISRDARNKYYADSVKGRFTISRDNSKKTVYLEMNSLRVEDTAVYYCAILIIPGITEPGSPDALDIWGQGTMVSVSS
chain 2: DIQMTQSPSSMSASVGDRVTITCRASQDISKWLAWYQQRPGKAPKLLIYAASSLQSGVPSRFSGSGSGTDFTLTISSLQPEDFATYYCQQASSFPWSITFGQGTRLEIR

Tests used:
[1] = target: synthetic stem helix peptide (SARS-CoV-2 spike residues 1140-1164) (SARS-CoV-2), P0DTC2; experiment: ELISA, peptide adsorbed on the plate, mAb titrated
[2] = target: synthetic fusion peptide (SARS-CoV-2 spike residues 808-833) (SARS-CoV-2), P0DTC2; experiment: ELISA, coated antigen, mAb titrated

| Binder | EC50 (read off the curve) [1] | EC50 (read off the curve) [2] |
| --- | --- | --- |
| B1 | 0.02 µg/mL | – |
| B2 | 0.03 µg/mL | – |
| B3 | – | 0.7 µg/mL |
